Bridge positions count the residues as written; N and C are the ends. Ends that are not written are not given here. Peptide text beside a SMILES is read from it. I, II: the chains in the order shown.
Tests used:
[1] = biological target: T1, native IL-5R α/β complex on TF-1 cells (Homo sapiens, UniProt Q01344); test: competition binding of [125I] IL-5 to TF-1 cells; conditions: read-out: IC50, inhibition of binding of [125I] IL-5 to TF-1 cells
T1 construct: endogenous in cells; host or cells: TF-1 cells
T1 sequence (Q01344 21-420): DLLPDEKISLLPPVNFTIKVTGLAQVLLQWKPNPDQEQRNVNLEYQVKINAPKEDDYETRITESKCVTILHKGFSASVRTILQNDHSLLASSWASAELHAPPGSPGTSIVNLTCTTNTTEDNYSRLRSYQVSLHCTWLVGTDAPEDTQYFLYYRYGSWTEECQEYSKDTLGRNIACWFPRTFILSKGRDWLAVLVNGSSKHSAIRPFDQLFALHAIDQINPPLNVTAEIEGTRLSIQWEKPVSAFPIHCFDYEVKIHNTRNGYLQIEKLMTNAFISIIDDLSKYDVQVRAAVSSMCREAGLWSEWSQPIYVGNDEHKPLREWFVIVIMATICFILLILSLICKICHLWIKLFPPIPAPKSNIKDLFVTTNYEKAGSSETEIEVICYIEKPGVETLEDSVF
Description: The ability of AF18748 to bind to the native IL-5R α/β complex on TF-1 cells was assessed in a competition binding assay (as described in McKinnon et al., J. Exp. Med 186: 121 (1997)). The binding of [^125I]

IL-5Rα ECD [2] = biological target: T2, IL-5Rα ECD (Homo sapiens, UniProt Q01344); test: biochemical
T2 sequence (Q01344 21-342 limits assumed): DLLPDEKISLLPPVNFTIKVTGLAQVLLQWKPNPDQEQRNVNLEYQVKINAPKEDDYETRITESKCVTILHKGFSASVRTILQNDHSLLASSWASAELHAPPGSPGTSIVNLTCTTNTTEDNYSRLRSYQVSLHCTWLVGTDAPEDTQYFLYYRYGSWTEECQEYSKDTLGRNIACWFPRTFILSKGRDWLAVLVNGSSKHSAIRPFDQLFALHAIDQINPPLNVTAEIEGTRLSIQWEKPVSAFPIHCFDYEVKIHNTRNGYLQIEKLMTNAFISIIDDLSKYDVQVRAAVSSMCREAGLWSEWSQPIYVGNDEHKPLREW
Description: Binding affinities of synthetic peptides for IL-5Rα were measured in a competition binding assay using radio-iodinated IL-5. Immulon 4 (Dynatech) microtiter wells were coated with streptavidin (Sigma) by incubating 100 μl of a 50 μg/ml solution in PBS for 30 min. at 37°. The wells were blocked with 200 μl of 1% BSA in PBS for 15 min. at 37°, followed by 100 μl of biotinylated monoclonal antibody, designated mAb 179, at 5 μg/ml in PBS. Soluble IL-5Rα was then immobilized in the wells by incubating 100 μl of a solution of soluble receptor harvest diluted 1:5000 in PBS/0.1% BSA for 1 hr. at 4°. After washing away unbound receptor, 50 μl of various concentrations of test peptide diluted in PBS/0.1% BSA were added to the wells, followed by 50 μl of a fixed concentration of [^125I] IL-5 (Amersham). The binding reactions were incubated at 4° C. for 2 hr, then washed with PBS to remove unbound [^125I] IL-5. Bound [^125I] IL-5 was determined by gamma counting. Total binding was defined by the amount of [^125I] IL-5 bound in the absence of any competitor. Non-specific binding was defined by the amount of [^125I] IL-5 bound in the presence of 30 nM IL-5. Peptide binding data was analyzed to determine the peptide concentration required to reduce specific [^125I] IL-5 binding by 50% (IC50).

human eosinophils = type: cell-based
Description: The functional activity of AF18748 was assessed in a human eosinophil adhesion assay (following the method of […], et al, Cytokine 8:248 (1996)). […] AF18748 is therefore a potent and selective antagonist of IL-5 in a human eosinophil functional assay.

IL-5RαECD = IL-5RαECD (Homo sapiens, UniProt Q01344); conditions: AF18748 over 10 pM to 1 nM; binding decreases above 1 nM
Description: A “sandwich” binding assay using microvolume fluorimetry (Martens et al., Anal. Biochem., 273:20 (1999)) was used to measure the ligand dependent association of two receptor proteins. IL-5RαECD (the extracellular domain (ECD) of the human IL-5 receptor a chain) was immobilized onto 10 μm beads and incubated with soluble, fluorescently labeled IL-5Rα ECD in the presence or absence of IL-5 or peptide.
Fluorescently labeled mAb 179 was prepared using Cy5 monofunctional reactive dye (Amersham) according to the manufacturer's instructions. (As disclosed in Martens et al., supra, Cy5.5 dye is also suitable.) Fluorescent mAb179:IL-5Rα ECD complexes were formed by preincubating the labeled antibody with an equimolar amount of receptor ECD in phosphate buffered saline (PBS) for 1 hr at room temperature. Mono A 10 μm polystyrene beads (Pharmacia) were coated first with biotinylated bovine serum albumin, then sequentially with streptavidin, biotinylated mAb179, and IL-5Rα ECD. […]
The binding reactions were incubated in microtiter plates overnight at room temperature, then microvolume fluorimetry measurements of bead-associated fluorescence were made using an FMAT instrument (Perkin-Elmer).

[3] = biological target: T3, chimeric IL-5Rα/EGFR receptor (Homo sapiens, UniProt P00533+Q01344); test: chimeric IL-5Rα/EGFR luciferase reporter cell assay in Ba/F3 cells; type: cell-based; conditions: for luciferase activity of Ba/F3 cells expressing the chimera: serial dilutions, 4 hr
T3 construct: A chimeric receptor consisting of the IL-5Rα ECD fused to the transmembrane spanning and intracellular domains; expressed in transfected cells; host or cells: Ba/F3 cells with c-fos enhancer/TK promoter luciferase reporter
Excerpt: A system comprising a chimeric IL-5R-α/EGFR reported cell assay was designed to analyze receptor binding stoichiometry in a cellular context. A chimeric receptor consisting of the IL-5Rα ECD fused to the transmembrane spanning and intracellular domains of the epidermal growth factor receptor (EGFR) was constructed, and stably expressed in Ba/F3 cells that also contained a luciferase reporter gene under the transcriptional control of the c-fos enhancer and minimal thymidine kinase promoter.
In the assay, Ba/F3 cells expressing a chimeric IL-5Rα/EGFR receptor and containing a luciferase reporter gene were starved overnight of the WEHI conditioned medium in which they were maintained, then seeded into microtiter wells at a density of 10^5 cells/well. Following stimulation, the cells were incubated for 4 hr at 37° in a 5% CO2 incubator. LucLite reagent (Packard) was then added to the wells according to the manufacturer's instructions and the plates were assayed for luciferase activity by counting in a Topcount instrument (Packard). Data points represent mean±SEM for 3 separate experiments performed in triplicate. The data has been normalized to the stimulation induced by 1 μM AF18748 in each experiment.

human IL-5 receptor = biological target: T4, human IL-5 receptor (Homo sapiens, UniProt Q01344); conditions: HL60 subclone, sodium butyrate induced; read-out: Kd of IL-5 binding sites; cited from earlier work
T4 construct: host or cells: HL60 subclone induced towards eosinophil differentiation with sodium butyrate
T4 sequence (Q01344 21-420): T1 sequence (Q01344 21-420)
T4 sequence (P32927 17-897 partner): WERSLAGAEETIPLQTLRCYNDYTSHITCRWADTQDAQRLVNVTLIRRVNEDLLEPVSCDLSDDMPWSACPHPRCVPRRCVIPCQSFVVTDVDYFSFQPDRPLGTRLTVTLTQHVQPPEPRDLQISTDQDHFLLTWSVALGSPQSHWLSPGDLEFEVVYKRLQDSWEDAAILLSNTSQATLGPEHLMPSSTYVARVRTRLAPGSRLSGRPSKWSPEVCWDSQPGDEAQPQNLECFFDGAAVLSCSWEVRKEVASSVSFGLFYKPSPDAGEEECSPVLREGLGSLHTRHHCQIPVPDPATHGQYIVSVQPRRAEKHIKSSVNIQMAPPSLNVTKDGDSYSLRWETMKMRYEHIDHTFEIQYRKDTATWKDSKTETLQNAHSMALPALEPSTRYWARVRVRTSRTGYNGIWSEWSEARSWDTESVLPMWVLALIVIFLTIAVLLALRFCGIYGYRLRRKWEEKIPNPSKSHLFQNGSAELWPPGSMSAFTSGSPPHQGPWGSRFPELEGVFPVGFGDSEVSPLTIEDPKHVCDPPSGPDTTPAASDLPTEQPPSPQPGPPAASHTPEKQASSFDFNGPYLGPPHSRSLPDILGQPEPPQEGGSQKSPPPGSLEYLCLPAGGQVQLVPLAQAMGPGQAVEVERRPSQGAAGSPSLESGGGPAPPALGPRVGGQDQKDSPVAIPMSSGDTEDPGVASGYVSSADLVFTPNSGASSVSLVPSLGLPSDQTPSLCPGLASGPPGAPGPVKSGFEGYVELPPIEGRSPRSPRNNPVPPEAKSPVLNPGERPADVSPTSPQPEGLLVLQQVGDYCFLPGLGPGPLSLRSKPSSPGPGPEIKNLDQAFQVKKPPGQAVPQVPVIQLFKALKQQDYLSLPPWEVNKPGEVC

IL-5Rα ECD [4] = biological target: T2, IL-5Rα ECD; test: gel filtration chromatography of IL-5Rα ECD with peptide; parameters: IL-5RαECD=ECD of the human IL-5 receptor a chain
Description: Secondly, the ability of peptides to induce receptor dimerization was studied using gel filtration chromatography. Gel filtration chromatography was performed on a Pharmacia Smart system using a Precision Superdex 200 3.2/30 column at 25° C. with a flow rate of 10 μl/min. The buffer was 50 mM Tris pH 7.5, 0.5 M NaCl. The column was calibrated using the Biorad Gel filtration molecular weight standards which contain Thyroglobulin, 670 KD; Bovine gamma globulin, 158 KD; Chicken ovalbumin, 44 KD; Equine myoglobin, 17 KD; Vitamin B12, 1.35 KD. […] Results shown are from a single experiment, representative of three separate runs for each condition.

[5] = IL-5Rα ECD with equimolar peptide, Superdex 200

T3 sequence (Q01344+P00533 fused, stated change not applied): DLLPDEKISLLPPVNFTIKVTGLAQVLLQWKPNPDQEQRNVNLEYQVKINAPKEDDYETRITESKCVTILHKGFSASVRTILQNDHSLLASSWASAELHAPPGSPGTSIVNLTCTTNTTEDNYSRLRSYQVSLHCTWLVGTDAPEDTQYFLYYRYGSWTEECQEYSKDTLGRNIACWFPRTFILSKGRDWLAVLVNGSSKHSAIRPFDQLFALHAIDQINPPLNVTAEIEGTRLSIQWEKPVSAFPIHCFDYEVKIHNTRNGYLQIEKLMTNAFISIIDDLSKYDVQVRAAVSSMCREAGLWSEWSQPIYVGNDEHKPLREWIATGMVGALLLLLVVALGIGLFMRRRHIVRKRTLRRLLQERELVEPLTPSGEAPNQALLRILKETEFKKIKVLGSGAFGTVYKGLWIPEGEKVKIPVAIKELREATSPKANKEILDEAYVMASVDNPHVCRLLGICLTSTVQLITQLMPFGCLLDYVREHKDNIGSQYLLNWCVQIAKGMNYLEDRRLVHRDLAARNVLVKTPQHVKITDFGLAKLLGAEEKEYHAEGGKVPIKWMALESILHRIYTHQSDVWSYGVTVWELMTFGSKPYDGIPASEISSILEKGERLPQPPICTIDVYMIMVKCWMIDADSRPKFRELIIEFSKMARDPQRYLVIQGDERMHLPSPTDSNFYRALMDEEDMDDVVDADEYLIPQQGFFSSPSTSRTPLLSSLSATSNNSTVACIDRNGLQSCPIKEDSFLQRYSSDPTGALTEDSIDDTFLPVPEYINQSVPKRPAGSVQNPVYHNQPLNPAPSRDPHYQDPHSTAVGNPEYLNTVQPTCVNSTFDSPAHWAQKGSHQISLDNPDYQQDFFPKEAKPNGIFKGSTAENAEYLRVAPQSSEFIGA

CC(C)[C@H](NC(=O)[C@H](CSSC[C@H](NC(=O)[C@@H](NC(=O)[C@H](Cc1ccc(O)cc1)NC(=O)CNC(=O)[C@H](CC(=O)O)NC(=O)CNC(=O)CNC(=O)CNC(=O)[C@@H](N)[C@@H](C)O)C(C)C)C(=O)N[C@H](C(=O)N[C@@H](CCC(=O)O)C(=O)N[C@@H](Cc1c[nH]c2ccccc12)C(=O)N[C@@H](C)C(=O)N[C@@H](CCCNC(=N)N)C(=O)N[C@H]1CSSC[C@@H](C(=O)N[C@@H](CCCCN)C(=O)O)NC(=O)[C@H]([C@@H](C)O)NC(=O)[C@@H]2CCCN2C1=O)C(C)C)NC(=O)[C@@H](NC(=O)[C@H](Cc1ccc(O)cc1)NC(=O)CNC(=O)[C@H](CC(=O)O)NC(=O)CNC(=O)CNC(=O)CNC(=O)[C@@H](N)[C@@H](C)O)C(C)C)C(=O)N[C@@H](CCC(=O)O)C(=O)N[C@@H](Cc1c[nH]c2ccccc12)C(=O)N[C@@H](C)C(=O)N[C@@H](CCCNC(=N)N)C(=O)N[C@H]1CSSC[C@@H](C(=O)N[C@@H](CCCCN)C(=O)O)NC(=O)[C@H]([C@@H](C)O)NC(=O)[C@@H]2CCCN2C1=O [AF18748] (I: H-TGGGDGYVCVEWARCPTCK-OH / II: H-TGGGDGYVCVEWARCPTCK-OH; disulfide I:9-II:9, I:15-I:18, II:15-II:18)
IC50 [1]: 0.4 ± 0.04 nM | IC50 (IL-5Rα ECD [2]): 0.78 nM | IC50 (human eosinophils): 0.348 ± 0.067 nM

IL-5: Interleukin 5, natural ligand, disulfide linked homodimer
association of fluorescently labeled IL-5Rα ECD to IL-5RαECD-coated beads (IL-5RαECD): did not mediate receptor association | basal level of luciferase expression in unstimulated cells [3]: reduced basal level of luciferase expression | effect on activation of the luciferase reporter by AF18748 ([3]; 200 pM AF18748, increasing concentrations of IL-5): antagonized | luciferase activity of Ba/F3 cells expressing the chimera [3]: no effect | Kd (human IL-5 receptor): 0.03 nM

VDECWRIIASHTWFCAEE (disulfide 4-15 (inferred)) [AF17121]
Receptor State (IL-5Rα ECD [4]; IL-5Rα ECD with equimolar peptide): Monomer | Calculated MW (IL-5Rα ECD [4]; [5]): 89.5 kDa | Elution Volume (IL-5Rα ECD [4]; [5]): 1.425 | effect on elution / apparent size of IL-5Rα ECD (IL-5Rα ECD [4]; gel filtration): no effect on the elution of the receptor | association of fluorescently labeled IL-5Rα ECD to IL-5RαECD-coated beads (IL-5RαECD): did not mediate the association of labeled receptor with the beads | basal level of luciferase expression in unstimulated cells [3]: reduced basal level of luciferase expression | luciferase activity of Ba/F3 cells expressing the chimera [3]: no effect

— patent US7109299B1, “Peptides and compounds that bind to the IL-5 receptor” (Affymax, Inc., priority 1999, dated 2006)
